Results: PMC2777438

B1: Porf259 24-mer (dsDNA)
DNA 1: TAAACATTGCATAACATGACAGGT
DNA 2: ACCTGTCATGTTATGCAATGTTTA
B2: Porf538 21-mer (dsDNA)
DNA 1: ACACGACATGAAATGACACGT
DNA 2: ACGTGTCATTTCATGTCGTGT
B3: 11-mer consensus (dsDNA)
DNA 1: ACATGACATGT
DNA 2: ACATGTCATGT
B4: PtraL operator (dsDNA)
DNA 1: TGCATTACATGACATGACATGTAAT
DNA 2: ATTACATGTCATGTCATGTAATGCA
B5: Porf259 11-mer (dsDNA)
DNA 1: ACATGACAGGT
DNA 2: ACCTGTCATGT
B6: 16-mer consensus (dsDNA)
DNA 1: ACATGACATGACATGT
DNA 2: ACATGTCATGTCATGT
B7: Porf538 left half site (dsDNA)
DNA 1: ACACGACATCA
DNA 2: TGATGTCGTGT
B8: Porf538 right half site (dsDNA)
DNA 1: AAATGACACGT
DNA 2: ACGTGTCATTT
B9: Porf538 Mutant 1 (dsDNA)
DNA 1: ACACTAAATGAAATGACACGT
DNA 2: ACGTGTCATTTCATTTAGTGT
B10: Porf538 Mutant 2 (dsDNA)
DNA 1: ACACGACATGAAATTAAACGT
DNA 2: ACGTTTAATTTCATGTCGTGT
B11: 22-mer operator (dsDNA)
DNA 1: CAAACATGATATGACATGTAAT
DNA 2: ATTACATGTCATATCATGTTTG
B12: PartA operator (dsDNA)
DNA 1: TTGTCATGACATGTCATGTGTAA
DNA 2: TTACACATGACATGTCATGACAA
B13: PtraA operator (dsDNA)
DNA 1: TTACATGACATGACATGTAATAC
DNA 2: GTATTACATGTCATGTCATGTAA
B14: 12-mer consensus (crystal) (dsDNA)
DNA 1: GACATGACATGT
DNA 2: CACATGTCATGT
modifications: 5-bromouracil at thymines (MAD DNA only)

Each binder was assayed against T1, ArtA (Staphylococcus aureus plasmid pSK41, UniProt Q52270 1-62) (assay: fluorescence polarization).
T1 sequence: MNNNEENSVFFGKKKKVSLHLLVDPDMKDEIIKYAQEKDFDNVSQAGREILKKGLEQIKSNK
B1: no binding.

Molecular target: T1, ArtA
Assay: fluorescence polarization
Remark: another data set of the same source
In the case of B2, the Kd is reported as 0.042 ± 0.007 µM.

Molecular target: T2, Δ14ArtA (Staphylococcus aureus plasmid pSK41, UniProt Q52270 15-62, del1-14)
T2 chain: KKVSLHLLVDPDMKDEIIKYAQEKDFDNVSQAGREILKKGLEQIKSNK
Assay: fluorescence polarization
In the case of B3, the Kd is reported as 0.222 ± 0.008 µM.
Binder B4 has a Kd of 0.039 ± 0.005 µM.
B5: no binding.
B2: no binding.
B1: no binding.
B6 was tested, and the Kd was 0.058 ± 0.003 µM.
B7: no binding.
B8: no binding.
B9: no binding.
B10: no binding.
With B11 the Kd was 0.058 ± 0.005 µM.
In the case of B12, the Kd is reported as 0.041 ± 0.009 µM.
In the case of B13, the Kd is reported as 0.052 ± 0.006 µM.

Molecular target: T1, ArtA
Assay: fluorescence polarization
Remark: another data set of the same source
Work on B3 yielded a Kd of 0.127 µM.
With B4 the Kd was 0.023 ± 0.005 µM.
In the case of B5, the Kd is reported as 0.79 ± 0.034 µM.
With B6 the Kd was 0.06 ± 0.003 µM.
B7: no binding.
B8: no binding.
B9: no binding.
B10: no binding.
For B11, the Kd was 0.062 ± 0.006 µM.
In the case of B12, the Kd is reported as 0.028 ± 0.008 µM.
Work on B13 yielded a Kd of 0.042 ± 0.009 µM.

Each binder was assayed against T1, ArtA (assay: crystal structure).
B14: binds.

Molecular target: T1, ArtA
Assay: fluorescence polarization
Remark: another data set of the same source
Binder B2 has a Kd of 0.058 ± 0.005 µM.

Molecular target: T1, ArtA
Assay: fluorescence polarization
Remark: another data set of the same source
B2 showed a Kd of 0.06 ± 0.01 µM.
